Measurements as given in publication PMC8060896 (The Journal of Biological Chemistry, 2002).

B1: S1 co-produced with N-CEACAMFc in 293 cells (domain or fragment)
chain: GYIGDFRCIQTVNYNGNNASAPSISTEAVDVSKGRGTYYVLDRVYLNATLLLTGYYPVDGSNYRNLALTGTNTLSLTWFKPPFLSEFNDGIFAKVQNLKTNTPTGATSYFPTIVIGSLFGNTSYTVVLEPYNNIIMASVCTYTICQLPYTPCKPNTNGNRVIGFWHTDVKPPICLLKRNFTFNVNAPWLYFHFYQQGGTFYAYYADKPSATTFLFSVYIGDILTQYFVLPFICTPTAGSTLAPLYWVTPLLKRQYLFNFNEKGVITSAVDCASSYISEIKCKTQSLLPSTGVYDLSGYTVQPVGVVYRRVPNLPDCKIEEWLTAKSVPSPLNWERRTFQNCNFNLSSLLRYVQAESLSCNNIDASKVYGMCFGSVSVDKFAIPRSRQIDLQIGNSGFLQTANYKIDTAATSCQLYYSLPKNNVTINNYNPSSWNRRYGFKVNDRCQIFANILLNGINSGTTCSTDLQLPNTEVATGVCVRYDLYGITGQGVFKEVKADYYNSWQALLYDVNGNLNGFRDLTTNKTYTIRSCYSGRVSAAYHKEAPEPALLYRNINCSYVFTNNISREENPLNYFDSYLGCVVNADNRTDEALPNCNLRMGAGLCVDYSKSRRARRSVSTGYRLTTFEPYMPMLVNDSVQSVGGLYEMQIPTNFTIGHHEEFIQIRAPKVTIDCAAFVCGDNAACRQQLVEYGSFCDNVNAILNEVNNLLDNMQLQVASALMQGVTISSRLPDGISGPIDDINFSPLLGCIGSTCAE
B2: S1 (769-residue S1 fragment of the MHV strain JHM spike protein, produced independently from cDNA) (domain or fragment)
chain: GYIGDFRCIQTVNYNGNNASAPSISTEAVDVSKGLGTYYVLDRVYLNATLLLTGYYPVDGSNYRNLALTGTNTLSLTWFKPPFLSEFNDGIFAKVQNLKTNTPTGATSYFPTIVIGSLFGNTSYTVVLEPYNNIIMASVCTYTICQLPYTPCKPNTNGNRVIGFWHTDVKPPICLLKRNFTFNVNAPWLYFHFYQQGGTFYAYYADKPSATTFLFSVYIGDILTQYFVLPFICTPTAGSTLLPLYWVTPLLKRQYLFNFNEKGVITSAVDCASSYISEIKCKTQSLLPSTGVYDLSGYTVQPVGVVYRRVPNLPDCKIEEWLTAKSVPSPLNWERRTFQNCNFNLSSLLRYVQAESLSCNNIDASKVYGMCFGSVSVDKFAIPRSRQIDLQIGNSGFLQTANYKIDTAATSCQLYYSLPKNNVTINNYNPSSWNRRYGFNDAGVFGKSKHDVAYAQQCFTVRPSYCPCAQPDIVSACTSQTKPMSAYCPTGTIHRECSLWNGPHLRSARVGSGTYTCECTCKPNPFDTYDLRCGQIKTIVNVGDHCEGLGVLEDKCGNSDPHKGCSCANDSFIGWSHDTCLVNDRCQIFANILLNGINSGTTCSTDLQLPNTEVATGVCVRYDLYGITGQGVFKEVKADYYNSWQALLYDVNGNLNGFRDLTTNKTYTIRSCYSGRVSAAYHKEAPEPALLYRNINCSYVFTNNISREENPLNYFDSYLGCVVNADNRTDEALPNCDLRMGAGLCVDYSKSRRARR

Experiments:
[1] = target: N-CEACAMFc (N-domain of murine CEACAM1^a linked to a carboxyl-terminal IgG1 Fc) (murine); assay: pull-down
[2] = target: N-CEACAMFc (N-domain of murine CEACAM1^a linked to a carboxyl-terminal IgG1 Fc) (murine); assay: pull-down; remark: listed apart in the source
Target sequence in this assay (P31809 35-428): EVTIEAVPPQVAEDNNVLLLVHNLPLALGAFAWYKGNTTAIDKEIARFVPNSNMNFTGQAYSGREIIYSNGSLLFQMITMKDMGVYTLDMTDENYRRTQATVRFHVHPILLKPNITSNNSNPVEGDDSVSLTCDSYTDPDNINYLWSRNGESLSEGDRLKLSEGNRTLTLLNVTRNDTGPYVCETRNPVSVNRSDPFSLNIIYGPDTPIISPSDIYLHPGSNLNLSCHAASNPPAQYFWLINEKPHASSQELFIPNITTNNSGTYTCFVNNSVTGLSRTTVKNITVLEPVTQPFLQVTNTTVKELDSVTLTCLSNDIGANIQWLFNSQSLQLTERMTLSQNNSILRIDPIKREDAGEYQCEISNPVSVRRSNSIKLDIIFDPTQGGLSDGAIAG

[3] = target: the molecule itself; assay: velocity sucrose gradient ultracentrifugation

| Molecule | 35S in the boxed band precipitated with N-CEACAMFc [1] | also measured |
| --- | --- | --- |
| Hetero-oligomer of S_(T212S/Y214S/Y216S) with wild-type S1_(330) (from UniProt P11225 14-1235; P11225 14-330) (complex) | 4330 cpm | – |
| S_(T212S/Y214S/Y216S) (full-length S of JHM strain with the indicated substitutions) (from UniProt P11225 14-1235) (natural protein) | 2140 cpm | – |
| B1 | – | ^35S-labeled S1:^35S-labeled N-CEACAMFc ratio [2]: 3.4 |
| B2 | – | stoichiometry N [3]: 2 |
